B1: FAM116A (parent)
chain: TVHEVDIFRCFCPVFLHSQMLWEL
B2: MYBL2 (parent)
chain: FPNRTDQQCQYRWLRVLNPDLVKG

Variants of: B1
Assay: protein stability index of a GFP-peptide fusion (GPS, HEK-293T) (PSI 1-6); higher = more stable
Conditions: c terminus: a fixed tail appended
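Note: lentivirally expressed fusions sorted by FACS into six bins by GFP to DsRed ratio, PSI derived from sequencing read proportions per bin multiplied by bin number.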

Protein stability index, by site and new letter:
H17: S 3.21; M 3.23; R 2.65; P 2.86
M20: F 2.05; I 3.16; V 2.62; Q 2.97; K 1.68; L 3.06; Y 3.21; N 3.79; P 1.4
F8: A 2.53; K 2.31; R 1.45; Y 2.89; P 2.36; H 1; N 2.05; C 2.96; W 3.88; L 3.07; G 1.07; M 3.18; V 2.4
P13: Y 1.72; A 2.36; N 1.5; K 2.83; I 3.13; L 1
V5: R 4.06; Y 2.28; T 3.3; W 2.47; S 2.17
C10: K 2.63; P 4.46; M 3.4; R 2; H 4.15; V 2.69; S 2.89; T 1.93
I7: N 1.09; C 2.28; R 1.94; G 3.26; Y 3.48; T 2.49; M 1.22
D6: K 2.61; Y 2.19; P 1.7; A 4.47; Q 2.07; N 3.02; H 2.23; W 3.69; I 2.2
L16: E 1.69; G 2.97; R 3.17; N 3.13; C 3.78; P 2.89
F11: R 1.38; K 2.82; G 2.22; H 2.82; C 2.65; Q 1.64; N 2.04
L24: Y 3.09; G 3.33; P 1.69; S 2.18; W 1.83; C 4.01; Q 1.47
C12: F 2.77; E 1.52; R 3.5; K 1.79; M 2.97; I 2.54
E23: W 2.4; L 3.65; I 3.36; N 3.34; Y 2.38; S 2.37; H 3.28; K 3.53; R 1.77
L21: R 1.77; I 3.87; T 3.12; Q 3.05; C 3.04
Q19: A 3.23; I 1.82; W 2.73; C 2.22; P 4.4; S 2.74; T 1.66
S18: L 2.89; G 2.83; Q 2.17; N 2.99; Y 4.23; E 1.56; T 3.1; D 2.15; F 2.77; W 2.85
V14: Y 1.89; G 3.26; Q 3.31; K 2.41; R 2.5; L 4.01; F 2.97; A 2.13
F15: Y 3.31; I 3.86; D 1.44; R 4.41; V 1.94; H 2.83; K 2.7; C 1.76
R9: S 3.12; H 2.19; E 4.78; F 2.13; A 2.82; Q 3.69; P 1.77; D 2.96; T 1.99
W22: R 3.65; H 1.52; T 2.11; K 1.13; G 3.08; F 2.22; M 3.69

Variants of: B2
Assay: as above
Conditions: c terminus: a fixed tail appended

Protein stability index of substitutions, site by site:
D6: C 1.45; A 1.7; T 1.84; V 1.98; L 1.97; Q 2.91; W 1.75; N 1.8; I 2.07; P 1.81; G 1.51; K 2.06; E 1.61; Y 1.61; F 2.36; R 1.41; S 1.89; H 1.94; M 1.27
Q7: K 1.8; F 1.67; M 1.96; A 2.53; P 2.17; I 2.07; N 2.38; Y 1.61; V 1.85; T 1.72; R 2.63; S 1.82; E 2.15; L 1.69; D 2.3; G 2.96; C 1.94; H 2.05; W 2.29
Q10: N 1.76; G 1.48; M 1.47; E 2.23; D 2.04; L 2.34; C 2.83; K 1.88; A 1.45; H 2.35; I 1.79; F 1.75; P 2.18
P2: W 1.61; Q 1.93; C 1.84; K 2.3; D 2.06; A 2.17; G 1.88; I 1.13; R 2.49; V 3.52; S 2.3; T 1.81; N 2.06; H 1.86; Y 2.2; L 2.62; M 1.63; E 2.67; F 1.69
T5: H 1.74; F 1.49; Y 1.95; W 2; I 2.29; S 1.86; D 1.98; C 1.57; L 1.64; E 2.29; R 1.73; V 1.8; A 2.73; K 2.29; N 2.01; P 2.05; Q 1.76; M 2.33; G 1.53
C9: Q 2.24; S 2.45; M 2.45; G 1.97; N 2.18; L 2.26; A 2; V 2.05; H 2.88; K 2.76; Y 2.49; E 1.86; T 2.9; D 2.19; R 2.85; I 2.16; W 2.51; F 2.38; P 2.5
F1: E 2.56; G 3.23; V 2.31; H 2.44; R 2.79; N 2.47; A 2.54; W 2; Q 2.76; K 2.14; T 2.75; M 2.37; D 3.24; L 2.08; C 2.24; S 2.51; P 3; I 2.6; Y 1.95
N3: A 2.27; G 1.77; S 1.78; T 1.91; E 1.96; P 1.93; K 1.77; V 1.91; C 1.56; I 1.82; F 1.63; Q 2.04; M 1.72; W 1.31; L 1.94; H 1.98; Y 1.87; D 1.83; R 2.1
Q8: T 1.82; L 1.68; G 1.34; E 2.01; C 1.42; D 2.09; R 1.96; M 1.83; A 1.38; N 2; H 2.37; F 1.71; S 1.83; W 1.97; K 1.97; V 2.05; Y 1.88; I 2.01; P 2.09
R4: Y 1.98; S 1.95; V 1.96; I 1.56; N 1.94; E 2.51; M 2.2; H 2.47; F 2.22; G 1.74; C 1.51; A 1.99; P 2.64; K 2.11; T 2.02; W 2.23; D 2.27; L 2.65; Q 2.19
